The target of this data set is T1, ATHB2 (UniProt Q05466 1-284).
T1 sequence: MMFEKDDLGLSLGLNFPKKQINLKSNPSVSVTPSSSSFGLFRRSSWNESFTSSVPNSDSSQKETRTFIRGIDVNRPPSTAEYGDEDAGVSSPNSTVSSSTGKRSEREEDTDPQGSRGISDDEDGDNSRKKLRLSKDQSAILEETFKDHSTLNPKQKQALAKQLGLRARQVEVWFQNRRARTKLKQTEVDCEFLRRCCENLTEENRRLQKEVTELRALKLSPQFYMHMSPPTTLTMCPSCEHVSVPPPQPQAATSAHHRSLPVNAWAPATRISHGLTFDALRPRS
The experiment in a line: EMSA; 100x unlabeled identical oligonucleotide used as competitor in a separate lane; LightShift Chemiluminescent EMSA Kit (Thermo Fisher) per manufacturer; native gel; buffer, salt, pH and temperature not stated. The settings on record: protein: recombinant; tags: 6xHis (pET-28a); chain copies: 2; label: 3' biotin on both strands; blunt. Background: Mobility shift assays separate free from complexed probe on a gel.

B1: GA20ox2 promoter ABS1 31-mer (dsDNA)
DNA 1: CAATTTGAAGACAATGTTAGGAATTAGTTAC
DNA 2: GTAACTAATTCCTAACATTGTCTTCAAATTG
Take B1: the binding result is listed as “binds”.
